Measurements from patent US20080193453A1.

Experiments:
[1] = molecular target: transferrin receptor (TfR, CD71) on cells (human) (UniProt P02786); assay: cell-based or functional assay
[2] = molecular target: Recombinant (His)6-tagged TfR1 ectodomain (human) (UniProt P02786); assay: SPR (Biacore 2000), K'd, TfR-(His)6 captured at low density (120 RU) on anti-(His)6 chip
[3] = molecular target: Recombinant (His)6-tagged TfR1 ectodomain (human) (UniProt P02786); assay: SPR (Biacore 2000), K'd, TfR-(His)6 captured at high density (1650 RU) on anti-(His)6 chip

Recombinant (His)6-tagged TfR1 ectodomain (human), sequence (P02786 89-760 limits assumed, form in doubt): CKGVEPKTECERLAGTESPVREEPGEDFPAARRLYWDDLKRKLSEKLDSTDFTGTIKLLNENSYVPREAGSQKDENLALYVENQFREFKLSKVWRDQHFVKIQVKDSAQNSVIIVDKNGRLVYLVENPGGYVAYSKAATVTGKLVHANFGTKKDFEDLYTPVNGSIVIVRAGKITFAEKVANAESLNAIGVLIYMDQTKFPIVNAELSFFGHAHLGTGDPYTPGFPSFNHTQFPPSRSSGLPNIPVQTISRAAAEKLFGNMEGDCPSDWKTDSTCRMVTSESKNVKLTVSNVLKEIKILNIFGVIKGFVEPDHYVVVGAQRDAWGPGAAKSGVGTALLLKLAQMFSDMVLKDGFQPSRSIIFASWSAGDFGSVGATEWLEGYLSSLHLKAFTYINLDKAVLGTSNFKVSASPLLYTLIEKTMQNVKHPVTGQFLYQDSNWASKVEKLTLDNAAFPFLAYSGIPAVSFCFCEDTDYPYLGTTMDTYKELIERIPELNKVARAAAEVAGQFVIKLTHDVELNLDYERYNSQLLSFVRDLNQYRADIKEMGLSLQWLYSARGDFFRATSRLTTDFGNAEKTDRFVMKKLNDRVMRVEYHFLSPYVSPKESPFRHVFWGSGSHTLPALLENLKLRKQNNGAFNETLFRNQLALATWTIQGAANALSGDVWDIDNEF
transferrin receptor (TfR, CD71) on cells (human), sequence (P02786 whole entry, the tested form may be a part): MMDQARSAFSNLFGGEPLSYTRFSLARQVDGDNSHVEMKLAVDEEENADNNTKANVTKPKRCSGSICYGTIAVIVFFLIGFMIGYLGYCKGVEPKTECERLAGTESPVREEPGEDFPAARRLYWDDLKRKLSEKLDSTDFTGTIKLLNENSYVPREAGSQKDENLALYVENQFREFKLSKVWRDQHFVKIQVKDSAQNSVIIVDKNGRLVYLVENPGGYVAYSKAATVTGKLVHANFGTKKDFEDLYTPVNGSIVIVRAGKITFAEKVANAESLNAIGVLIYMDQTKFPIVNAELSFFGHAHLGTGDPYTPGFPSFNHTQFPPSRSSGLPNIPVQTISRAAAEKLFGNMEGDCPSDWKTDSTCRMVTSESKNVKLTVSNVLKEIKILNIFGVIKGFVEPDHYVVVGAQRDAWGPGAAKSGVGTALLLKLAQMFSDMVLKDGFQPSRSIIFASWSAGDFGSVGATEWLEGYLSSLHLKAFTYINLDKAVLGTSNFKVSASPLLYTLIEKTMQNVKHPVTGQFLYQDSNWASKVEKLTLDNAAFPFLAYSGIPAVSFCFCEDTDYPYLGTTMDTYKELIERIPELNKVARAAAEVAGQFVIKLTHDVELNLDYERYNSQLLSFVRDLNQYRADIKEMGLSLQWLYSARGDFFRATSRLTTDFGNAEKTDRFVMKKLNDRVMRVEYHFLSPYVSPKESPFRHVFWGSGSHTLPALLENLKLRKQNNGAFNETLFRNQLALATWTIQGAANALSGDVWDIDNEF

In the case of “anti-human TfR (CD71) monoclonal antibody A24”, the down-regulation of TfR expression in ex vivo cell cultures from chronic and acute forms of ATL [1] is reported as greater than 75%, the down-regulation of TfR expression on HTLV-1 infected cells from acute ATL donors in IL-15 or IL-2/IL-15 conditioned medium [1] is reported as greater than 65% and the Kd [2] is reported as 2.69 nM. It also gave a Kd [3] of 1.02 nM.
